Numbering of substitutions follows the chain as printed.
T1: TBX5 T-box domain M74V (human? (UniProt Q99593 used for …, UniProt Q99593 48-248, M74V))
T1 sequence: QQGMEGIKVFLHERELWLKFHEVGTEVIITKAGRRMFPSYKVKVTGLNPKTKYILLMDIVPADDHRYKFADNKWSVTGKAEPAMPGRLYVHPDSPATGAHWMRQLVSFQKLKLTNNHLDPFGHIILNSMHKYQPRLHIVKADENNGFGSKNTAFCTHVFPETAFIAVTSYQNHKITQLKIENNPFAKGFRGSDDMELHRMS

T2: TBX5 T-box domain I101F (human? (UniProt Q99593 used for …, UniProt Q99593 48-248, I101F))
T2 sequence: T1 sequence with V27M, I54F

T3: TBX5 T-box domain I54T (human? (UniProt Q99593 used for …, UniProt Q99593 48-248, I54T))
T3 sequence: T1 sequence with I7T, V27M

T4: TBX5 T-box domain R237W (human? (UniProt Q99593 used for …, UniProt Q99593 48-248, R237W))
T4 sequence: T1 sequence with V27M, R190W

T5: TBX5 T-box domain R113K (human? (UniProt Q99593 used for …, UniProt Q99593 48-248, R113K))
T5 sequence: T1 sequence with V27M, R66K

B1: Nppa (ANF) promoter probe (dsDNA)
DNA 1: CCCGGTTTTGTGATTCTCTCTCTCACACCTTCAGCAGGAACGTGCCAATGCCGCCGTAAG
DNA 2: CTTACGGCGGCATTGGCACGTTCCTGCTGAAGGTGTGAGAGAGAGAATCACAAAACCGGG
B2: Camta1 promoter probe (dsDNA)
DNA 1: GCAGATCTCCTGCTGGGCTGACACCTCACTATCGCAGAACCGTGCCAATGCCGCCGTAAG
DNA 2: CTTACGGCGGCATTGGCACGGTTCTGCGATAGTGAGGTGTCAGCCCAGCAGGAGATCTGC

Columns and labels:
Experiment in all cases: EMSA; EMSA: 50 mM NaCl, 10 mM Tris-HCl pH 8.0, 10% glycerol; protein 0-2000 nM; 30 min at 30 °C then 30 min at room temperature; 6% native PAGE in 0.5x TBE; 3 replicates
Details in all cases: protein: recombinant; tags: N-terminal Strep-Tag II, C-terminal 10xHis; label: IRDye 700
TBX5 T-box domain M74V = target: T1, TBX5 T-box domain M74V
TBX5 T-box domain I101F = target: T2, TBX5 T-box domain I101F
TBX5 T-box domain I54T = target: T3, TBX5 T-box domain I54T
TBX5 T-box domain R237W = target: T4, TBX5 T-box domain R237W
TBX5 T-box domain R113K = target: T5, TBX5 T-box domain R113K

Binder	binding signal (TBX5 T-box domain M74V)	binding signal (TBX5 T-box domain I101F)	binding signal (TBX5 T-box domain I54T)	binding signal (TBX5 T-box domain R237W)	binding signal (TBX5 T-box domain R113K)
B1	-3.27 fold change in Bmax vs WT	-1.26 fold change in Bmax vs WT	-1.65 fold change in Bmax vs WT	-3.76 fold change in Bmax vs WT	-2.87 fold change in Bmax vs WT
B2	-2.93 fold change in Bmax vs WT	-1.38 fold change in Bmax vs WT	-1.34 fold change in Bmax vs WT	-10.5 fold change in Bmax vs WT	-1.49 fold change in Bmax vs WT
